Laboratory results as given in patent publication US20150307621A1 (Kyowa Kirin, published 2015).
Substitutions are numbered along the chain they refer to.

B1: human anti-CD98 monoclonal antibody K3 (antibody, V domains shown)
VH: EVQLVQSGAEVKKPGESLKISCKGSGYRFTDYWIGWVRQMPGKGLEWMGIFYPGDSDARYSPSFQGQVTISADKSINTAYLQWSSLKASDTAMYYCARRRDIVGGTDYWGQGTLVTVSS
VL: EIVLTQSPATLSLSPGERATLSCRASQSVSSYLDWYQQKPGQAPRLLIYDASSRATGIPARFSGSGSGTDFTLTISSLEPEDFAVYYCQQRSNWITFGQGTRLEIK
notes: Recombinant human IgG1/kappa (variable regions put into the N5KG1-Val Lark vector); The entries begin with the leader peptide; FITC-labelled in some assays; also called 4-32-9; K3IgG1
B2: human anti-CD98 monoclonal antibody 1-40-1 (antibody, V domains shown)
VH: EVQLVESGGGVVRPGGSLRLSCAASGFTFDDYGMTWVRQAPGKGLEWVSTISWNGGGTGYADSVKGRFTISRDNAKNSLYLQMNSLRAEDTALYYCAGYCIITGCYADYWGQGTLVTVSS
VL: B1 VL with D34A, S53N, I95W, R102K, L103V
notes: Recombinant human IgG1/kappa (N5KG1-Val Lark vector); Entries begin with the leader peptide; also called 1-40-1IgG1
B3: human anti-CD98 monoclonal antibody C2IgG1 (antibody, V domains shown)
VH: QLQLQESGPGLVKPSETLSLTCTVSGGSISSSSYYWGWIRQPPGKGLEWIGSIYYSGSTYYNPSLKSRVTISVDTSKSQFFLKLSSVTAADTAVYYCARQGTGLALFDYWGQGTLVTVSS
VL: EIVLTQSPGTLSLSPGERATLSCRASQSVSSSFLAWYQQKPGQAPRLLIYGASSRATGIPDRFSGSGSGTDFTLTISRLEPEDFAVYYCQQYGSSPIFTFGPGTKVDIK
notes: Recombinant IgG1/kappa form of the C2 hybridoma antibody (hybridoma C2 is IgM); The entries begin with residues translated from the cloning site (STT, RSLT) and the leader peptide; also called 4-35-14
B4: human anti-CD98 monoclonal antibody 3-69-6 (antibody, V domains shown)
VH: QVQLVQSGAEVKKPGASVKVSCKASGYTFTSYGISWMRQAPGQGLEWMGWISAYNGNTNYVQKFQDRVTMTRDTSTSTAYMELRSLRSDDTAVYYCARDRGSNWYGWFDPWGQGTLVTVSS
VL: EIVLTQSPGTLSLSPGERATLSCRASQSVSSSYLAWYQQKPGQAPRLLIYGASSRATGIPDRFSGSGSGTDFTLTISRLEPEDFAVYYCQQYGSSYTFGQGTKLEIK
notes: Recombinant human IgG1/kappa (N5KG1-Val Lark vector); Entries begin with residues translated from the cloning site (RRPT, RSLT) and the leader peptide; also called 3-69-6IgG1

How the values were obtained:
mouse CD98 = biological target: T1, mouse CD98 (mouse, UniProt P10852 1-526, limits assumed); assay: not described at this place
T1 construct: also called mCD98
T1 sequence (looked up): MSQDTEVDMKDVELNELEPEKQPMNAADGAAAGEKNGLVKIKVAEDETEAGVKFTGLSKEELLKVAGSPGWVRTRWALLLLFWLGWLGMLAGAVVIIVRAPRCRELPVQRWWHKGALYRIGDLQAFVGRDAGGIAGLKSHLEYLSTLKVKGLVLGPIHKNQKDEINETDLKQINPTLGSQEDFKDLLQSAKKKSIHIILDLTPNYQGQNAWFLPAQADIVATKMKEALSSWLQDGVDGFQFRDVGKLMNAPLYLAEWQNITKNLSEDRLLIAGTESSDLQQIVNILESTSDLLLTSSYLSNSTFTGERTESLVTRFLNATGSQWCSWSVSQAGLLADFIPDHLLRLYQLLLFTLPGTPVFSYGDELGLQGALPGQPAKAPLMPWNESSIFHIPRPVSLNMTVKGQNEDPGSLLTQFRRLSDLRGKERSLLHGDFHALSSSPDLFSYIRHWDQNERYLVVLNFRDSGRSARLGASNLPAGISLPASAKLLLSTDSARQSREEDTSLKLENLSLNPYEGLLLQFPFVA

[1] = biological target: T2, human CD98/human LAT1-EGFP complex on transfected CT26 or L929 cells (human, UniProt P08195 1-529; Q01650 1-507, CD98 and LAT1 are linked by a disulfide bond on the cell membrane); assay: FACS, antibody 5 µg/mL, transfected CT26 or L929 cells
T2 construct: also called hCD98/hLAT1-E; hCD98/hLAT1; not shown: EGFP and the short vector-encoded linker (pEGFP-N1) fused to the intracellular C terminus of hLAT1
T2 sequence (Q01650 whole entry, the tested form may be a part, one chain of several): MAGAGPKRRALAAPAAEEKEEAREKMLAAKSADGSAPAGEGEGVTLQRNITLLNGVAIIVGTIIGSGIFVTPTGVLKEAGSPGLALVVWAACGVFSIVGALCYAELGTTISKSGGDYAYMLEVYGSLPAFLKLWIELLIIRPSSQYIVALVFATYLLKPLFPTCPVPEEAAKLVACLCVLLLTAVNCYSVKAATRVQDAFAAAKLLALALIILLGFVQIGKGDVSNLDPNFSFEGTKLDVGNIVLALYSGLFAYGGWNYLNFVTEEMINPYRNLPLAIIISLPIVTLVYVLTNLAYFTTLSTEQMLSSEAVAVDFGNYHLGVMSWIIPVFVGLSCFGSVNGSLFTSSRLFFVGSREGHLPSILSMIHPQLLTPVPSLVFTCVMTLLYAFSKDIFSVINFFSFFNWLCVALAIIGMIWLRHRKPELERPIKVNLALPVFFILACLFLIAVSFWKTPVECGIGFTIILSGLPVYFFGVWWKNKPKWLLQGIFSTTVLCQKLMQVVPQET

[2] = biological target: T3, CD98 on normal human aortic endothelial cells (HAEC) (human, UniProt P08195 2-529); assay: FACS on cultured HAEC, antibody 3.2 ng/mL to 50 µg/mL
T3 sequence: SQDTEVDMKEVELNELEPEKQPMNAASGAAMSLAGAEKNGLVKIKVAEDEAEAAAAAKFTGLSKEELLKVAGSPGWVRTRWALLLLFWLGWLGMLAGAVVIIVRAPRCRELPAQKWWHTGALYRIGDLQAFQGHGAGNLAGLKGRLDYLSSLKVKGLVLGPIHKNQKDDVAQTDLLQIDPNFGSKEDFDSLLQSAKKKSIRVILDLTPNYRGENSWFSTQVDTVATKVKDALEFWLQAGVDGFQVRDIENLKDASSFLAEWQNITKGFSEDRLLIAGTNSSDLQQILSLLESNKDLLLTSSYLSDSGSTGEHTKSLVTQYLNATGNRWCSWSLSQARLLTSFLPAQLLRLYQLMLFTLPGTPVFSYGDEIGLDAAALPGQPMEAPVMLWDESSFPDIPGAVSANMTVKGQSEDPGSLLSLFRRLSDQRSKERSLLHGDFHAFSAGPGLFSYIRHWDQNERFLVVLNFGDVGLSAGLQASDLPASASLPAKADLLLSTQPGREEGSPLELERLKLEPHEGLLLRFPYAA

[3] = biological target: T4, CD98 on human peripheral blood monocytes, PHA-activated T cells and activated B cells (human, UniProt P08195 2-529); assay: FACS with FITC-labeled antibody 5 µg/mL on human peripheral blood cells
T4 sequence: T3 sequence

human CD98 = biological target: T5, human CD98 (human, UniProt P08195 2-529); assay: FACS, antibody 5 µg/mL, hCD98-expressing L929 cells
T5 construct: also called hCD98; 4F2
T5 sequence: T3 sequence

[4] = biological target: T6, human LAT1-EGFP on L929 cells (human, UniProt Q01650 1-507); assay: FACS on hLAT1-E-expressing L929 cells
T6 construct: L929 cells transfected with pEF1/hLAT1-EGFP alone; also called hLAT1-E; hLAT1-EGFP; not shown: EGFP and the short vector-encoded linker (pEGFP-N1) at the C terminus of hLAT1
T6 sequence (Q01650 whole entry): as the sequence (Q01650 whole entry, the tested form may be a part, one chain of several) above

Binder	binding result (mouse CD98)	binding result [1]	binding result [2]	binding result [3]	binding result (human CD98)	binding result [4]
B1	no binding	binds	binds	binds	binds	no binding (tested: 5 µg/mL)
B2	no binding	binds	binds	binds	binds	no binding (tested: 5 µg/mL)
B3	no binding	–	–	–	–	no binding (tested: 5 µg/mL)
B4	no binding	–	–	–	–	no binding (tested: 5 µg/mL)
